Square brackets hold non-standard residues; d marks the D form. Ends that are not written are not given here. Met(O) = CS(=O)CC[C@H](N)C(=O)O
The substances below were run against T1, mouse ADAMTS7 (Mus musculus, UniProt Q68SA9) (assay: TMT10 TAILS N-terminomics, HUVEC experiment (process replicates, trypsin/AspN digest)). Conditions: HUVEC TAILS HC; log fold change of N-terminal peptide, Ad-mADAMTS7 WT over Luc.
T1 construct: Full-length mouse Adamts7 1-1857 (Uniprot Q68SA9, WT or E373Q catalytic mutant); expressed in transfected cells; host or cells: Human Coronary Artery Smooth Muscle Cells (HCA-SMC, Lonza), adenovirus 50 MOI
T1 sequence (Q68SA9 221-1657): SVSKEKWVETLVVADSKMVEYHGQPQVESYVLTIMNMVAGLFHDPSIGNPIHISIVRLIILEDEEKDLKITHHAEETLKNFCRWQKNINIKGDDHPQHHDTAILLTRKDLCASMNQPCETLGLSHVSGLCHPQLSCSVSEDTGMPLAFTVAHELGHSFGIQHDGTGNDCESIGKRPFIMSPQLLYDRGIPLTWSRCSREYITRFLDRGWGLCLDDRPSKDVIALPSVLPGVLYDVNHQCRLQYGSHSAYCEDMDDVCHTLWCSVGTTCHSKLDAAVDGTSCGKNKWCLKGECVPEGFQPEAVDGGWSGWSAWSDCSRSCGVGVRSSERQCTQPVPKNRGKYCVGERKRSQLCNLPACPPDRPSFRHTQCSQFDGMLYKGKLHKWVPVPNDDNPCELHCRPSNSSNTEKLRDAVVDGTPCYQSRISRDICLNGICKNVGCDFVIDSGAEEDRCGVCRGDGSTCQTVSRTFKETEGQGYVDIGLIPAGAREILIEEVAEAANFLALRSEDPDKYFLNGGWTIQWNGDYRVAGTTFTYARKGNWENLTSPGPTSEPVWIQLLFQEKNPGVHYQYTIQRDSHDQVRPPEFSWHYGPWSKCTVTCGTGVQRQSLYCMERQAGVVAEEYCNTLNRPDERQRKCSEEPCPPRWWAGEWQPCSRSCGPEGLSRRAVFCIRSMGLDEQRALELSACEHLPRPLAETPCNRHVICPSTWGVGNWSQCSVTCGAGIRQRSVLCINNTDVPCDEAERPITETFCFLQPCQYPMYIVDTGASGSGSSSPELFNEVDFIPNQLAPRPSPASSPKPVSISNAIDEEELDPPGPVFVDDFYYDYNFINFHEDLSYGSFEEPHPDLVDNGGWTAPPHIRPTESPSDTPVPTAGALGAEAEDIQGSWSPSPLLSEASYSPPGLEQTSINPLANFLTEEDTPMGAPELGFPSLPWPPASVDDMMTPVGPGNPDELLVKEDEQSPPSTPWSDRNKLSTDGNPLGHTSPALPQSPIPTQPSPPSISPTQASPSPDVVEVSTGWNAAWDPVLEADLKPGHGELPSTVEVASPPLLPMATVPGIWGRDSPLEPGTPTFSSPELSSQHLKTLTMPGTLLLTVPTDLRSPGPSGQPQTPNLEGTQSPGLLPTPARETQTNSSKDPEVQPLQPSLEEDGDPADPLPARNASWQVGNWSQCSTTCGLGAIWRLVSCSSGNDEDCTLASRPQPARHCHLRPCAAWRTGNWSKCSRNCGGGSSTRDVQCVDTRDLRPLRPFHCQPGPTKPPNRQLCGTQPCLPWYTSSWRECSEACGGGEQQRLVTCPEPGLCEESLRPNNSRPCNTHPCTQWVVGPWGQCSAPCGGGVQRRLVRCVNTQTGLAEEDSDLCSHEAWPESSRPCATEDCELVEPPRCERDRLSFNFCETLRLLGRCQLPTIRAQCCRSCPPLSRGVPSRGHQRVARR
Assay type: cell-based, human
In short: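 Full-length mouse ADAMTS7 (WT or E373Q mutant, C-terminal 3xFLAG) or luciferase was transduced via adenovirus, 50 MOI, into HCA-SMC (SMC1, SMC2) or HUVEC. SMC1: pooled media, technical triplicates 400 ug; SMC2: process triplicates 300 ug; HUVEC: process triplicates 200 ug, bFGF2 10 ng/ml.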

Row | Substance | logFC.mWT.over.Luc
1 | PSAP_301 (LVEPIKKH; listed as Homo sapiens) | 2.38
2 | LTBP3_205 (HAAFLVPLGPGQISA; listed as Homo sapiens) | 2.41
3 | LTBP3_221 (VQAPPPVVNVR; listed as Homo sapiens) | 2.72
4 | ZYX_244 (PVSLANTQPR; listed as Homo sapiens) | 1.20
5 | LTBP2_129 (QQQPAPR; listed as Homo sapiens) | 4.83
6 | MCFD2_55 (HLEGVINKPEA; listed as Homo sapiens) | 1.13
7 | UQCRH_76 (HGSPNNSERAMRAVGE[Met(O)]CKGPGAAR; listed as Homo sapiens) | 1.39
8 | CLU_267 (FQHPPTEFIR; listed as Homo sapiens) | 1.56
9 | BICD1_280 (NNDDKMNGHIHGPLVKLNGDYR; listed as Homo sapiens) | 1.23
10 | ASMT_321 (LSSAGFR; listed as Homo sapiens) | 2.18
11 | FN1_1624 (LVQTAVTTIPAPT; listed as Homo sapiens) | 1.40
12 | LTBP3_164 (LSTGALPPLAPEG; listed as Homo sapiens) | 1.82
13 | CTGF_173 (TVVGPALAAYR; listed as Homo sapiens) | 2.94
14 | PTBP1_376 (AAAAAGR; listed as Homo sapiens) | 1.11
15 | LTBP2_253 (GEGTLAR; listed as Homo sapiens) | 2.90
16 | PZP_578 (HAHLQVAAAPQSLCALR; listed as Homo sapiens) | 2.11
17 | FN1_1743 (WESPQGQVSR; listed as Homo sapiens) | 2.86
18 | CTGF_174 (VVGPALAAYR; listed as Homo sapiens) | 2.13
19 | THBS1_630 (FGQGVEHATANK; listed as Homo sapiens) | 2.27

From patent US20240368668A1, “SUBSTRATES AND BIOMARKERS OF ADAMTS7” (The Broad Institute, Inc., priority 2021, published 2024)
